Here are results for 19 sequences from the DeepSol protein solubility set.

A short description of this data set: soluble on expression in E. coli; label from the status in PepcDB or PDB records.
For the sequence “MTKPLILASQSPRRKELLDLLQLPYSIIVSEVEEKLNRNFSPEENVQWLAKQKAKAVADLHPHAIVIGADTMVCLDGECLGKPQDQEEAASMLRRLSGRSHSVITAVSIQAENHSETFYDKTEVAFWSLSEEEIWTYIETKEPMDKAGAYGIQGRGALFVKKIDGDYYSVMGLPISKTMRALRHFDIRA”, the “soluble on expression in E. coli” value was “soluble”. In the case of “MGSDKIHHHHHHMRRTDKKKTFGQQSSKVTQLADTLSQAISMKKFREGDSLPSINQLSAEYGVSRDTVFKAFLDLRERGLIDSTPGKGYYVTSQVTNVLLLLDQYTPFKEALYNSFVKHLPINYKVDLLFHQYNERLFNTIIRESVGKYNKYIVMNFDNEKFSMVLNKIHPTKLLLLDFGKFEKEKYSYICQDFDEAFYQALLMLKEKLRHYPQLVLLFSKNLKHPQSSKEYFTRFCEEQGFLCEIQEDIENLTVRKGVVYIAIKQQDVVKVVKQGRLEGLKCGKDFGLLAYNDIPSYEVIDEGITSLSIDWEMMGNEAANFVLNNVPIQKYLPTEVRLRKSL”, the “soluble on expression in E. coli” value is recorded as “not soluble”. Next, “MGSDKIHHHHHHMPKMGELTLTSVDEFDFRLLIKALGKGEKGSRALTFDEACLLLEGFAKGKATRAQMASAMMLMRVRGETTEEISGMVAGLRRTVDKDWHSLEVDIDWPVYAGKREQLPWLLLVAKLLAKQGVRVMLHGDSQALPHRRHVESCLASLNIACCTTPQMAKAALHSDNIVYVCAGDLAPVLDECRQLHQELGLRSLIQTAARCMNPTNAPISLRSYFHPGLDTVHQGICEILFEKSEYHAGSVAIFKGLQGETECNPRVATTITVVNGQTDNIAVSSLSIPTLLEGFSGAKVGQAELSSDILALLWREQEPFSADALTTLMSRTMIEQALSSMTATLAAVLLLLSRKSAMTEPNTTAIITTEQAVNLSQQCWTNRFNSTDCPLKQWRNRELLCAV”: “not soluble”. The entry for “MKLPPSLICPPLLALYRVWCRTLNFEEEGRAAVDVLWQERKPMVFALWHDELFPLMHVRRELEIVTVVSQSRDGEYLARVLQGLGLHTARGSSSRGGVKALLQAARMMQKQNLCGCVTVDGPRGPRHRVKEGAIFLAHRAKAPIVPIRLFMSRTKVFAKAWDKFQLPLPGSDVRVVFGAPYHTAENALESPRLEDERQRLEAKLEALALEHHHHHH” is “soluble”; for “MMKRARIIYNPTSGRELFKRHLPDVLVRLEKAGYETSCHATEGPGDATKAARQAVLREFDLVVAAGGDGTINEVVNGIADQPYRPKLGVIPVGTTNDFARAIGVPRSIEGACEVIATGEPVPIDIGCVTNEDKTRYFINIAGGGRLTELTYEVPSKLKTMLGQLAYYLKGIEMLPSIKATEAQIEYDGKLFEGEIMMFLVSLTNSVGGFEKLAPDSSLNDGLFDFIIVKKTNLAEFIRLVTLAARGEHINDPHIIYTKANRVKVRSPMQLNLDGEFGGMLPGEFVNLYRHLEVIMPKDKAEQVRTGR” it is “not soluble”; for “MPALDLIRPSVTAMRVIASVNAEFARELKLPPHIRSLGLISADSDDVTYIAADEATKQAMVEVVYGRSLYAGAAHGPSPTAGEVLIMLGGPNPAEVRAGLDAMVANIENGAAFQWANDAENTAFLAHVVSRTGSYLSSTAGITLGDPMAYLVAPPLEATYGIDAALKSADVQLVTYVPPPSETNYSAAFLTGSQAACKAACNAFTDAVLEIARNPIQRA” it is “not soluble”. The entry for “HLVCPMSKSPYVDPHKSGHEIWEEFSMSFTPAVKEVVEFAKRIPGFRDLSQHDQVNLLKAGTFEVLMVRFASLFDAKERTVTFLSGKKYSVDDLHSMGAGDLLNSMFEFSEKLNALQLSDEEMSLFTAVVLVSADRSGIENVNSVEALQETLIRALRTLIMKNHPNEASIFTKLLLKLPDLRSLNNMHSEELLAFKVHP” is “soluble”.

“MSTSSNKSDAIKQTRAFSILLMGVDTGSSERASKWEGNSDSMILVTVNPKTKKTTMTSLERDTLTTLSGPKNNEMNGVEAKLNAAYAAGGAQMAIMTVQDLLNITIDNYVQINMQGLIDLVNAVGGITVTNEFDFPISIAENEPEYQATVAPGTHKINGEQALVYARMRYDDPEGDYGRQKRQREVIQKVLKKILALDSISSYRKILSAVSSNMQTNIEISSRTIPSLLGYRDALRTIKTYQLKGEDATLSDGGSYQIVTSNHLLEIQNRIRTELGLHKVNQLKTNATVYENLYGSTKSQTVNNNYDSSGQAPSYSDSHSSYANYSSGVDTGQSASTDQDSTASSHRPATPSSSSDALAADESSSSGSGSLVPPANINPQTLEHHHHHH”: the “soluble on expression in E. coli” value is reported as “soluble”. Next, “MGSDKIHHHHHHMGKKYDVYGVGNALVDIEYEVSPELLQELKIDKGVMTLLDEDSQNHILENLKNLHCHKSCGGSAANTMVAISQLGGKAFYSCKVANDEFGDFYIEDLLNSQVDTNLKNGDRQSGITGKCLVLVTPDADRTMNTFLGITEKFSTQELVSSALADSEYIYIEGYLVTSPTAKEAAIKAREIAEKAGVKTAMSLSDYNMVKFFKDGLLDIIGPGLDLIFANESEALELADTQDFQVAVDKLKTLSKKFAITRGSKGSVVFDGQELIEIAAPQVKAIDTVGAGDMYAGAFLYGITQSMSYEEAGKLASTAASKIVTSYGPRLKTEELKALVSA”: “not soluble”; “MTKTLPKDFIFGGATAAYQAEGATHTDGKGPVAWDKYLEDNYWYTAEPASDFYHKYPVDLELAEEYGVNGIRISIAWSRIFPTGYGEVNEKGVEFYHKLFAECHKRHVEPFVTLHHFDTPEALHSNGDFLNRENIEHFIDYAAFCFEEFPEVNYWTTFNEIGPIGDGQYLVGKFPPGIKYDLAKVFQSHHNMMVSHARAVKLYKDKGYKGEIGVVHALPTKYPYDPENPADVRAAELEDIIHNKFILDATYLGHYSDKTMEGVNHILAENGGELDLRDEDFQALDAAKDLNDFLGINYYMSDWMQAFDGETEIIHNGKGEKGSSKYQIKGVGRRVAPDYVPRTDWDWIIYPEGLYDQIMRVKNDYPNYKKIYITCNGLGYKDEFVDNTVYDDGRIDYVKQHLEVLSDAIADGANVKGYFIWSLMDVFSWSNGYEKRYGLFYVDFDTQERYPKKSAHWYKKLAETQVIE”: “soluble”. Next, “MAKINELLRESTTTNSNSIGRPNLVALTRATTKLIYSDIVATQRTNQPVAAFYGIKYLNPDNEFTFKTGATYAGEAGYVDREQITELTEESKLTLNKGDLFKYNNIVYKVLEDTPFATIEESDLELALQIAIVLLKVRLFSDAASTSKFESSDSEIADARFQINKWQTAVKSRKLKTGITVELAQDLEANGFDAPNFLEDLLATEMADEINKDILQSLITVSKRYKVTGITDSGFIDLSYASAPEAGRSLYRMVCEMVSHIQKESTYTATFCVASARAAAILAASGWLKHKPEDDKYLSQNAYGFLANGLPLYCDTNSPLDYVIVGVVENIGEKEIVGSIFYAPYTEGLDLDDPEHVGAFKVVVDPESLQPSIGLLVRYALSANPYTVAKDEKEARIIDGGDMDKMAGRSDLSVLLGVKLPKIIIDE”: “soluble”. The entry for “MTLRCSDVNVEPLPGTAKTGSGFVLLEHAGSWSRDVLDGGTFDPELTDQLKRHLKASGMGLQLIRKPGREGRNVEKHNLFLVFAEASIIEHLVVDAPADVLDLDLSGPGKNNAQRMDDPMLLICTHSKRDVCCAIKGRPLAAAVEPQFGPLHVWEASHTKGHRFAPSMLLMPWNYSYGLLDEAETVQLFQGALDNKLFLPGNRGRGTLDARGQVAEIAVAEAFGEAVAPASLQVEFEDDSVLVTHPDGRTWVVELERIEVDGVVSSCGDQPKTGKAWVARQVTELIG” is “not soluble”. “MGSDKIHHHHHHMALIITKKAADLPKPKKPVIGLALGSGAAKGWAHIGVLNGLAKLGIFPDKVAGCSVGALVGAAYANDNLDEIEKWVRGFSSWDVLGLMDIRWRKGGIINGEKVFEVLSSRVGALKIEQLKRAFAAVATDLYSGQEIWFREGDLRHAVRASCSMPGFLPPVQQDDRWLVDGAVVNPVPVSLCRAMGVDLVIAVDLNGHRRGQMMMLPEQVVSHQAEKSQTVTEKPQLESGFMDLWGKSKEYLSGLTEKFSLGVNSHPGMLAVMSQSMDILEQRHKRARLMGDPPDICIVPQVFDIGTMEFHRAAEAIAAGEQAVENISHLLKASIGDFDSAPQR”: the “soluble on expression in E. coli” value is recorded as “not soluble”. The entry for “MSLCDYLERSAKKFPEKVAVQGVRLGHIEAITYAELNTFSDRFSEFLRAQGVTRGEFIPFFMFKEIDSIKSIFSILKADCAYVPLDCKSPEGRLLSIIKSCKAKFIIVNERSESLAERVFSAIPTLKIINISEFVSDTAFVFSASLNISVDLAYVLFTSGSTGTPKGVMISHQAIIDYIGWCTETYNITAIDHVSNHAPLYFDNSTFDIYTSMAAGATLHLVPEEFNVMLPRLIDWIEDNRISIFFCVPSILTLMLQTGRLRTERFVELKHLICAGEVLPTTTAKKILGLFPHLQLTNMYGPTEITVDCTYHVIREADVTSSTSIPIGKPRRNMQLMVLTDDGAVTNERGAIGELMVRGSSVSYGYLDNYAKTQEAFVQNPAHSLYPDMVYKTGDRVTIGEEGLYYYCGRLDNQIKHLGYRIELGEIEANALLLDTVLEAVAVYRSSTSMFESAICMAVKTTVPTDVRTLRAALTSVLPPYMIPGHFVFLDSDFPRTPNGKYDRASILGLFVEGHHHHHH” is “not soluble”.

For “AMKNWKTSAESILTTGPVVPVIVVKKLEHAVPMAKALVAGGVRVLNVTLRTECAVDAIRAIAKEVPEAIVGAGTVLNPQQLAEVTEAGAQFAISPGLTEPLLKAATEGTIPLIPGISTVSELMLGMDYGLKEFKFFPAEANGGVKALQAIAGPFSQVRFCPTGGISPANYRDYLALKSVLCIGGSWLVPADALEAGDYDRITKLAREAVEGAKL”, the “soluble on expression in E. coli” value is listed as “soluble”. Next, “MAHHHHHHMHLKECPPASSVGWLRPSLTIYMFGSKSLALSSAVFVLDCFTMGRKQRLLSAVVNVPLTLRLMLYFSASYKGEEPRLPPSTCVLGSSQGNNFLLLPGAFAESGCTTFFPGREGLMSELQDELWLQLPSRLLILARLDLANFLFAVVGRLPNSGINLFQQRPPSSLAVLPKRCMGMTLVALTTL”: “not soluble”; “MAHHHHHHMSEGKRATSAAPEAKYNAYAEAADPDRYRVADALLFTCAEHGKACVLCVTAGKNGRSGRTAAVGATLFWLTCPNLNAIIARFEGHRCVQAVSAAMAQQPCLCDWHVQSHDVYASRAKDLLSPAQWCFFESHFLSDEQPSLHKYGNAAVSHASDMKCLHALVAQTLAGVANPVGSVVVNYILLQHKLVCEAADTGNTEQQGVEEKRLLMKATLNSTRLFSDFTTAFVRAASERPREDWHALHNVSFEVPLPEGNMWCKTAVQYMWQVDSQLAALCPDLCARALTVHVALGGPSRRRHKKHRMN”: “not soluble”; “SCREKTELTPDQQTLLHFIMDSYNKQRMPQEITNKILKEEFSAEENFLILTEMATNHVQVLVEFTKKLPGFQTLDHEDQIALLKGSAVEAMFLRSAEIFNKKLPSGHSDLLEERIRNSGISDEYITPMFSFYKSIGELKMTQEEYALLTAIVILSPDRQYIKDREAVEKLQEPLLDVLQKLCKIHQPENPQHFACLLGRLTELRTFNHHHAEMLMSWRVNDHKFTPLLCEIWDVQ”: “soluble”. In the case of “ASYWSLQDILLRQGYRENLHPDDLIEGYRELLADSVHRCLQSDVEVGLFLSGGIDSAAVAHFAAEKQDLHTFTVLSQSTFTNEDAKYAHWLAKDLHLPNHQVLYQLGNDELLQPESYKHLLWICETPFCGPEQLYKFHLHKYAKAIRPNLKVMLTGQGSDEFNGGYSTTLSPAENPSWEGFIESVNTMEMNRLHRLQGNIFRVWEEHFGLSPINLSYLKSNDSSQADPWQSYVLTKYRDLQMYNCWHEDRIAAANHIENRVPFLDHRLVEWVCGIPDGLRKDLLWDKSVLRKSLTNELHTSYTHRPKVPFFYGKDVRYTHKMMFHLLKKNNYQLIEEAFSHSDASSIIQVEHIHAIM”, the “soluble on expression in E. coli” value is given as “not soluble”.
